Results published in paper PMC8863895, “A synthetic protein as efficient multitarget regulator against complement over-activation” (Communications Biology, 2022).
Blank lines part the entries; values can stand above or below the binder they belong to.

What was measured:
Conditions in all cases: both partners purified
C3b = molecular target: T1, C3b (human); experiment: ELISA; decay acceleration assay: 250 ng C3b immobilised on Maxisorp; C3bBb formed with 400 ng Factor B and 25 ng Factor D, 2 h 37 °C; increasing concentrations of regulator, 40 min 37 °C; Bb remaining bound to C3b detected with anti-factor B polyclonal antibody
T1 construct: complement C3, C3b β-chain; complement C3, C3b α′-chain (C3 α-chain after release of C3a); also called complement C3b; source: bought: CompTech

complement C3b = molecular target: T2, complement C3b (UniProt P01024 749-1663; P01024 749-1663); experiment: ELISA; 5 µg/mL C3b or C5 immobilised on Maxisorp plates at 4 °C overnight; increasing concentrations of regulator (0.195-50 nM) in sample buffer (2% BSA in TBS, 0.05% Tween-20); detected with anti-His-tag antibodies; absorbance normalised to the highest concentration; IC50 from a 4PL nonlinear regression
T2 construct: C3b beta-chain, cut product of complement C3; C3b alpha'-chain, cut product of complement C3 (alpha chain without C3a); source: bought: CompTech

complement C5 = molecular target: T3, complement C5; experiment: as above
T3 construct: complement C5 beta chain; complement C5 alpha chain; source: bought: CompTech

C6 = molecular target: T4, C6 (human, UniProt P13671 22-934); experiment: ELISA; C5b6, C6, C7, C8, C9, C3b or C5 (5 µg/mL) immobilised on Maxisorp plates; single concentration of regulator (25 nM MFHR13 or MFHR1 variants, 50 nM FHR1); detected with anti-His-tag antibodies
T4 construct: complement component C6; also called complement component C6; source: bought: CompTech
T4 sequence (P13671 22-934): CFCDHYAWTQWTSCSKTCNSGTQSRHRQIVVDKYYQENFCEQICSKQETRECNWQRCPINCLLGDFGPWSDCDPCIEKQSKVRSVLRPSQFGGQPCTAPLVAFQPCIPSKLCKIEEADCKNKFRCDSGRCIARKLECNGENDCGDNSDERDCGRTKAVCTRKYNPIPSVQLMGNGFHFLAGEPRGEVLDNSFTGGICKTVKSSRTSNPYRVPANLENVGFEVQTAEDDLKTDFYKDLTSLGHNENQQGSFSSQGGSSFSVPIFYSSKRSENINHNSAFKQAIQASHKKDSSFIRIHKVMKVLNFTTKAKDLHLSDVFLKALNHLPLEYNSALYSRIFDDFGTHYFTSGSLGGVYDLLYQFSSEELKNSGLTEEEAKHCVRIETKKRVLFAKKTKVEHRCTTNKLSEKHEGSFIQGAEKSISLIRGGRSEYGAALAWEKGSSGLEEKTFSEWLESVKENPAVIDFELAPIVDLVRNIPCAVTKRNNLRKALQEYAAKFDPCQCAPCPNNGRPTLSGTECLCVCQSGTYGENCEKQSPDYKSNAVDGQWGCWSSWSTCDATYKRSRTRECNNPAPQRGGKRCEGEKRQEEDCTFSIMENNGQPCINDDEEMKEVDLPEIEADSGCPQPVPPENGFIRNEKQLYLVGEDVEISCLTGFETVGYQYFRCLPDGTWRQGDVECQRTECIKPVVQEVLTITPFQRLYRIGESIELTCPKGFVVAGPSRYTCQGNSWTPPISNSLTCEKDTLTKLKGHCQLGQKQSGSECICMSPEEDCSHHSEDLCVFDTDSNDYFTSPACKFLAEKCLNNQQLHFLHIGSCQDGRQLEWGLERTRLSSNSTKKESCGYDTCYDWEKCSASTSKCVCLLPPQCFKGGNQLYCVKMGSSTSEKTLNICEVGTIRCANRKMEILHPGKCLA

C9 = molecular target: T5, C9 (human, UniProt P02748 22-559); experiment: as above
T5 construct: complement component C9; Supplier is stated for the ELISA; also called complement component C9; source: bought: CompTech
T5 sequence (P02748 22-559): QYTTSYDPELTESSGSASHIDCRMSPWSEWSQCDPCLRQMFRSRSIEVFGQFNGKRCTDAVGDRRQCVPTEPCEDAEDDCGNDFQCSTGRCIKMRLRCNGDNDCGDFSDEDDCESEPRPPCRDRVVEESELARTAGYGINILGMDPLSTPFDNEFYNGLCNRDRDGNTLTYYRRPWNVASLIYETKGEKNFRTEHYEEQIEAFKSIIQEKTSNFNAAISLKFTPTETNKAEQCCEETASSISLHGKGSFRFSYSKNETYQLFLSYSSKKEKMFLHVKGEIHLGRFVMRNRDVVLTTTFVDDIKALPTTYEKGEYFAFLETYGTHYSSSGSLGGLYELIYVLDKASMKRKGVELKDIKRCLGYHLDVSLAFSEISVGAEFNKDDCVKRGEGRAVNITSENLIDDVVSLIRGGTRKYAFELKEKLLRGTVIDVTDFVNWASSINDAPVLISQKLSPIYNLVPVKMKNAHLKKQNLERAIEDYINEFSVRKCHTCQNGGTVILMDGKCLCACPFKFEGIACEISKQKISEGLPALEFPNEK

C8 = molecular target: T6, C8 (human, UniProt P07357 31-584; P07358 55-591; P07360 21-202); experiment: as above
T6 construct: also called complement component C8; source: bought: CompTech; copies: + +
T6 sequence (P07357 31-584, chain 1 of 3): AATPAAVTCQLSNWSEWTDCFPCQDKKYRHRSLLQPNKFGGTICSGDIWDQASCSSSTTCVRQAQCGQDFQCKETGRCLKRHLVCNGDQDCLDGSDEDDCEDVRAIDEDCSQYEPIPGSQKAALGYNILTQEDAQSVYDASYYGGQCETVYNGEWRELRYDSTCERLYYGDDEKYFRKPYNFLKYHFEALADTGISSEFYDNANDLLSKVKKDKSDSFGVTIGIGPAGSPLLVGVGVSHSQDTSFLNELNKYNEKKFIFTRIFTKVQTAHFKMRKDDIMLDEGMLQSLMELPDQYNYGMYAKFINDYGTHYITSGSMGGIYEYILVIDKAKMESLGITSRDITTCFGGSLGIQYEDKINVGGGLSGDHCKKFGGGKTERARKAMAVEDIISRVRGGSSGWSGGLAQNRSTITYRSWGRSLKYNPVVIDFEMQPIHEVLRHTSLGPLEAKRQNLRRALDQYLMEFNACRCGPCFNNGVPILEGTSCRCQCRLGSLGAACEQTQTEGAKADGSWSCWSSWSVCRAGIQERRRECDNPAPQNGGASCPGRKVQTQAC
T6 sequence (P07358 55-591, chain 2 of 3): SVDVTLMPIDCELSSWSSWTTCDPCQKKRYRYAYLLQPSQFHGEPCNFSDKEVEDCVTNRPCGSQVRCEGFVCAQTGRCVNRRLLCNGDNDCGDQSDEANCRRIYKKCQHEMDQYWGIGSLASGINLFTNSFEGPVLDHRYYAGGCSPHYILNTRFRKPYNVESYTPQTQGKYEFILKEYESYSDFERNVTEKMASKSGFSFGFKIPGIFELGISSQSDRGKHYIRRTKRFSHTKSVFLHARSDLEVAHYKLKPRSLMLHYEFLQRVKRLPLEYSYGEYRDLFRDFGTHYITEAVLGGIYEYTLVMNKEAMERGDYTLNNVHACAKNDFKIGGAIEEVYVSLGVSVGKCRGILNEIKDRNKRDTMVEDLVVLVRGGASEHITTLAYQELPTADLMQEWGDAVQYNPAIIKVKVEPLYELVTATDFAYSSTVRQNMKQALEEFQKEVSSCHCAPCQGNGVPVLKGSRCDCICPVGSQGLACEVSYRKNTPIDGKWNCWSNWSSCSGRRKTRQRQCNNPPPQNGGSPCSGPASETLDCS
T6 sequence (P07360 21-202, chain 3 of 3): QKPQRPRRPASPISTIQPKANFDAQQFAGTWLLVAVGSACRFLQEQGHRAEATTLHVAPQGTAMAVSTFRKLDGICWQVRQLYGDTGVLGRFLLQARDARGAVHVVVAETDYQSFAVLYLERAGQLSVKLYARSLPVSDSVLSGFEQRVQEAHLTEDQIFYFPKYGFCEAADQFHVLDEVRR

C7 = molecular target: T7, C7 (human, UniProt P10643 23-843); experiment: as above
T7 construct: complement component C7; Supplier is stated for the ELISA; also called complement component C7; source: bought: CompTech
T7 sequence (P10643 23-843): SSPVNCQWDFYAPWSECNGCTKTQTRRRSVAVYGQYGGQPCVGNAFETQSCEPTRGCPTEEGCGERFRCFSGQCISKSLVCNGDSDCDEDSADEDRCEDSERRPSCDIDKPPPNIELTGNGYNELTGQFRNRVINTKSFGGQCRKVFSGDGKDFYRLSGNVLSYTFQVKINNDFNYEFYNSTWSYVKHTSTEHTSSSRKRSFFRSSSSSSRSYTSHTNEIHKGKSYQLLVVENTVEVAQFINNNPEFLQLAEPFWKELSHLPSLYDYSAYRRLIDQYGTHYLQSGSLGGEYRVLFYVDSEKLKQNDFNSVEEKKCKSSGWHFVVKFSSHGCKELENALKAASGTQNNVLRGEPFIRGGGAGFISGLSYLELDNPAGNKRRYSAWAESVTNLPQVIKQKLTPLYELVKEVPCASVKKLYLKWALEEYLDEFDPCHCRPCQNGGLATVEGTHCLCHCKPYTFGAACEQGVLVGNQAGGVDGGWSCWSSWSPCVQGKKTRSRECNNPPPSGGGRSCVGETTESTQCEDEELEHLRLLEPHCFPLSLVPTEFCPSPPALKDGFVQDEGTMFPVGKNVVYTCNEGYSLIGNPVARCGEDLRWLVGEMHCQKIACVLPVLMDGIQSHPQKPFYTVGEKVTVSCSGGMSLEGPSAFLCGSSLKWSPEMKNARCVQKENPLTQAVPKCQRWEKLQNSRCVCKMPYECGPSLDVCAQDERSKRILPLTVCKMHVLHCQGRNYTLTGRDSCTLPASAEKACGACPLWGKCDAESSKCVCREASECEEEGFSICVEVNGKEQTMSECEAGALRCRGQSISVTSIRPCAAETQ

IC50 (C3b): 2.7 nM
B1: MFHR13 (FHR1_(1-2):FH1-4:FH13:FH_(19-20)) (other)
chain: EATFCDFPKINHGILYDEEKYKPFSQVPTGEVFYYSCEYNFVSPSKSFWTRITCTEEGWSPTPKCLRLCFFPFVENGHSESSGQTHLEGDTVQIICNTGYRLQNNENNISCVERGWSTPPKCRSTEDCNELPPRRNTEILTGSWSDQTYPEGTQAIYKCRPGYRSLGNIIMVCRKGEWVALNPLRKCQKRPCGHPGDTPFGTFTLTGGNVFEYGVKAVYTCNEGYQLLGEINYRECDTDGWTNDIPICEVVKCLPVTAPENGKIVSSAMEPDREYHFGQAVRFVCNSGYKIEGDEEMHCSDDGFWSKEKPKCVEISCKSPDVINGSPISQKIIYKENERFQYKCNMGYEYSERGDAVCTESGWRPLPSCVAIDKLKKCKSSNLIILEEHLKNKKEFDHNSNIRYRCRGKEGWIHTVCINGRWDPEVNCSMAQIQLCGPPPPIDNGDITSFPLSVYAPASSVEYQCQNLYQLEGNKRITCRNGQWSEPPKCLHPCVISREIMENYNIALRWTAKQKLYSRTGESVEFVCKRGYRLSSRSHTLRTTCWDGKLEYPTCAKR
modifications: N-glycan at the NIS site in FHR1 SCR2 (around 65% occupied); N-glycan at the NCS site in FH13 (fully glycosylated); glycosylation site in FH4 deamidated and not glycosylated; labelled with NT-647 RED-NHS for MST

IC50 (complement C3b): 16.1 nM
IC50 (complement C5): 52.5 nM
B2: MFHR13 (FHR1_(1-2):FH1-4:FH13:FH_(19-20)) (other)
chain: EATFCDFPKINHGILYDEEKYKPFSQVPTGEVFYYSCEYNFVSPSKSFWTRITCTEEGWSPTPKCLRLCFFPFVENGHSESSGQTHLEGDTVQIICNTGYRLQNNENNISCVERGWSTPPKCRSEDCNELPPRRNTEILTGSWSDQTYPEGTQAIYKCRPGYRSLGNIIMVCRKGEWVALNPLRKCQKRPCGHPGDTPFGTFTLTGGNVFEYGVKAVYTCNEGYQLLGEINYRECDTDGWTNDIPICEVVKCLPVTAPENGKIVSSAMEPDREYHFGQAVRFVCNSGYKIEGDEEMHCSDDGFWSKEKPKCVEISCKSPDVINGSPISQKIIYKENERFQYKCNMGYEYSERGDAVCTESGWRPLPSCVAIDKLKKCKSSNLIILEEHLKNKKEFDHNSNIRYRCRGKEGWIHTVCINGRWDPEVNCSMAQIQLCGPPPPIDNGDITSFPLSVYAPASSVEYQCQNLYQLEGNKRITCRNGQWSEPPKCLHPCVISREIMENYNIALRWTAKQKLYSRTGESVEFVCKRGYRLSSRSHTLRTTCWDGKLEYPTCAKR

binding result (C6): binds
binding result (C9): binds
binding result (C8): binds
binding result (C7): binds
B3: Recombinant FHR1 (human FH-related protein 1) with a C-terminal 6x His-tag (natural protein, UniProt Q03591 19-330, looked up)
chain: EATFCDFPKINHGILYDEEKYKPFSQVPTGEVFYYSCEYNFVSPSKSFWTRITCTEEGWSPTPKCLRLCFFPFVENGHSESSGQTHLEGDTVQIICNTGYRLQNNENNISCVERGWSTPPKCRSTDTSCVNPPTVQNAHILSRQMSKYPSGERVRYECRSPYEMFGDEEVMCLNGNWTEPPQCKDSTGKCGPPPPIDNGDITSFPLSVYAPASSVEYQCQNLYQLEGNKRITCRNGQWSEPPKCLHPCVISREIMENYNIALRWTAKQKLYLRTGESAEFVCKRGYRLSSRSHTLRTTCWDGKLEYPTCAKR
notes: complement factor H-related protein 1 (FHR1), human; source: bought: Abcam 152006; not shown: His6, C-terminal, kept
